We go through two sequences from patent publication US20200332307.

In data set [1] the test system is TALE5 synthetic transcription factor (TAL DNA-binding domain targeting ZmBBM promoter + activation domain) (synthetic (Xanthomonas TAL effector)?). In words: cell_activity. The conditions noted are these: endogenous BBM mRNA by qRT-PCR in maize protoplasts, 24 h; text p298 cites SEQ ID NO: 218 but FIG. 3 legend assigns TALE4-6 to SEQ 270-272.
Data set [2] concerns TALE1 synthetic transcription factor (TAL DNA-binding domain targeting ZmWUS promoter + activation domain) (synthetic (Xanthomonas TAL effector)?). Put plainly: cell_activity. The conditions noted are these: endogenous WUS mRNA by qRT-PCR in maize protoplasts, 24 h. Background: Quantitative PCR measures a nucleic acid by following its amplification.

For “TCCTCGAATCATTCTAAGAAGAAAC (double strand) [TALE5 target site in ZmBBM promoter]”, the activity (fold induction) in data set [1] turned out to be 490. With “TCCCGCTCTCGCTCTCTGC (double strand) [TALE1 target site in ZmWUS promoter]”, the activity (fold induction) in data set [2] was 60.
